Results reported in US20170022503A1 (NATIONAL UNIVERSITY OF SINGAPORE, published 2017).

B1: flag-tagged WARS2(L53F) mutant (human) (enzyme)
chain: LHKGSAAAPALQKDSKKRVFSGIQPTGILHLGNYFGAIESWVRLQDEYDSVLYSIVDLHSITVPQDPAVLRQSILDMTAVLLACGINPEKSILFQQSQVSEHTQLSWILSCMVRLPRLQHLHQWKAKTTKQKHDGTVGLLTYPVLQAADILLYKSTHVPVGEDQVQHMELVQDLAQGFNKKYGEFFPVPESILTSMKKVKSLRDPSAKMSKSDPDKLATVRITDSPEEIVQKFRKAVTDFTSEVTYDPAGRAGVSNIVAVHAAVTGLSVEEVVRRSAGMNTARYKLAVADAVIEKFAPIKREIEKLKLDKDHLEKVLQIGSAKAKELAYTVCQEVKKLVGFL
notes: also called mutant WARS2; not shown: C-terminal myc-DDK (flag) tag of the Origene construct
B2: glyceraldehyde-3-phosphate dehydrogenase (GAPDH) (enzyme)
chain: not shown
notes: GAIT complex component; endogenous protein of HUVEC cells

Legend:
Experiment in all cases: co-IP of flag-tagged protein from HUVEC cells, blot
[1] = molecular target: T1, glutamyl-prolyl tRNA synthetase (EPRS) (human, UniProt P07814 1-1512)
T1 construct: GAIT complex component; endogenous protein of HUVEC cells

[2] = molecular target: Ribosomal Protein L 13a (RPL13a) (human, UniProt P40429 2-203)
[3] = molecular target: B1

T1 sequence (P07814 whole entry): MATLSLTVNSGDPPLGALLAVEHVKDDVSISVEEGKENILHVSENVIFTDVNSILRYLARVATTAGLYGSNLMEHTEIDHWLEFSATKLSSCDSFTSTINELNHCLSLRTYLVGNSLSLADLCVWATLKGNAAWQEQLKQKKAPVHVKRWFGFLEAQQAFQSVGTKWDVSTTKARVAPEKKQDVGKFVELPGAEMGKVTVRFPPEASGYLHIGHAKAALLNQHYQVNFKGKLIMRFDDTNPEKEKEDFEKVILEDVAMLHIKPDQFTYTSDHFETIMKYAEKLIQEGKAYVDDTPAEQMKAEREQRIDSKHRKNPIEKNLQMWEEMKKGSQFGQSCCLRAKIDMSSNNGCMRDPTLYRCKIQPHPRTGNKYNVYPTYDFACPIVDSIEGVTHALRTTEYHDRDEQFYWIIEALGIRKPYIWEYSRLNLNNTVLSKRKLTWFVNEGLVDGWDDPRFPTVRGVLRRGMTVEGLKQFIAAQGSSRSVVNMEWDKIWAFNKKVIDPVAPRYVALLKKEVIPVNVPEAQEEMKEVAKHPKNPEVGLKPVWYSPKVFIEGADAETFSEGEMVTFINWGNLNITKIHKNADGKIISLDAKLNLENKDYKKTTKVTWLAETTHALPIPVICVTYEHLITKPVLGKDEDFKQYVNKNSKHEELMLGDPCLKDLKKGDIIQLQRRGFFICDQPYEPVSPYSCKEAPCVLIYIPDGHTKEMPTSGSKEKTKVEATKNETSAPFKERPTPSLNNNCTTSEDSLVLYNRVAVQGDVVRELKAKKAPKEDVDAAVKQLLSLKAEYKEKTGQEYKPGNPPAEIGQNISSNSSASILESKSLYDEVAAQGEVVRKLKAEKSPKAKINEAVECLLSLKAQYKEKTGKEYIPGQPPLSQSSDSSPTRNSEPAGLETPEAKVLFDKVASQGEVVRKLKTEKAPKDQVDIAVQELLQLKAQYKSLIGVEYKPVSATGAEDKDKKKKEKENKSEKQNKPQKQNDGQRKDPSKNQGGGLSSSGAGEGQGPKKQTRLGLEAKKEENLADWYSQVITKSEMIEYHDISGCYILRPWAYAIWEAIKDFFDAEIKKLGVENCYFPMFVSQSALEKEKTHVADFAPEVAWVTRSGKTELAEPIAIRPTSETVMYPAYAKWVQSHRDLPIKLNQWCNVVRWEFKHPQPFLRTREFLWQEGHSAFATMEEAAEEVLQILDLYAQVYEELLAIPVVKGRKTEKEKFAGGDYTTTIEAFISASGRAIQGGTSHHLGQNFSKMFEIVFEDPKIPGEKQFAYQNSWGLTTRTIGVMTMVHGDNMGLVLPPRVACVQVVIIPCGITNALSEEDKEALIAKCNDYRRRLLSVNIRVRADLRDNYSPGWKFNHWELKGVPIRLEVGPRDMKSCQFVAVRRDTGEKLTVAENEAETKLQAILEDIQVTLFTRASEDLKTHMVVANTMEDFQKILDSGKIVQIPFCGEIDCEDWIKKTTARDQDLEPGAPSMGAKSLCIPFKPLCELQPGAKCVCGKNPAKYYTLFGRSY

binding result [1]	binding result [2]	binding result [3]	Binder
no binding	no binding	–	B1
–	–	no binding	B2
